One molecule from patent US20240309360A1, “TRANS-ACTIVATORS AND METHODS AND USE THEREOF” (THE GOVERNING COUNCIL OF THE UNIVERSITY OF TORONTO, priority 2021, published 2024) can be followed below.

Format in all cases: cell-based, human
The subject of test [1] is 7×TetO-EGFP reporter in HEK293T cells. Nature of the test: 117 effector domains with rTetR or dCas9 based recruitment systems. The conditions noted are these: rTetR fusion (1 μg/ml doxycycline 48 hours) or PYL1 with dCas9-ABI1. As to the method:
A further 117 different combinations of activation domains or fragments of individual activation domains were assayed by fusing them either to PYL1 (to test with the dCas9-ABI1 system) or to rTetR, a transcription factor that binds DNA in the presence of doxycycline. All constructs were tested with the same TetO reporter construct.
Methods: 200 ng of plasmid expressing super activators fused to rTetR in their C terminus and 50 ng DsRed was transfected into HEK293T cells stably expressing 7×TetO-EGFP reporter. One day after transfection, cells were treated with 1 μg/ml doxycycline for 48 hours. After the treatment, cells were analyzed by flow cytometry for EGFP expression

Test [2] deals with EGFP reporter (TetO7) in HEK293T cells. Kind of test: Multi-TAD effectors fused to PYL1 recruited to EGFP reporter. The conditions noted are these: PYL1 fusion, 1 μM abscisic acid, 24 or 48 hours. As to the method: Multiple TADs were fused together with PYL1 and tested for transcriptional activity using the PYL1-ABI EGFP reporter system described above. The following TAD fragments were used: CITED1-8 (SEQ ID NO: 47), CITED2-12 (SEQ ID NO: 49), C3orf62-12 (SEQ ID NO: 45), BRD8-25 (SEQ ID NO: 40), ZXDC-12 (SEQ ID NO: 97), KLF7-1 (SEQ ID NO: 72), ATXN7L3-1 (SEQ ID NO: 35), FAM90A1-20 (SEQ ID NO: 60), SPDYE4-3 (SEQ ID NO: 90), YAF2-7 (SEQ ID NO: 96).
Methods: Cells were seeded on 48-well plates. Next day, after cells were between 70-90% confluent, 250 ng of each construct was transfected in each well using (Thermo Fisher Scientific, 11668019) reagent. Each construct was either directly fused TagRFP either directly fused to each component or being co-expressed from the same plasmid was used as a measure of transfection. In each experiment, the same gate for RFP+ cells were used to control for the effect of each construct's expression levels on activity. EGFP reporter cells were expanded from a clonal line to control for level of ABI-dCas9 and gRNA targeting the TetO7 sites upstream of the promoter. For the CD133 induction experiment, a 293T cell line stably expressing ABI-dCas9 and a pool of 5 gRNAs targeting the promoter were used for all activators. CD133 antibody conjugated to APC (Miltenyi Biotec, 130-113-668) was used. […]

Test [3] has as its system promoter of CD133 gene in HEK293T cells. Nature of the test: CD133 induction experiment. The note with it: PYL1 fusion, 1 μM abscisic acid, pool of 5 gRNAs. As to the method: Up to 2 additional TADs selected from p65 and HSF1 were combined with SPDYE4-CITED1 TADs in different orders and tested for the ability to activate transcription of the PYL1-ABI EGFP reporter system (FIG. 17, left panel) or the endogenous CD133 gene (FIG. 17, right panel).
Methods: Cells were seeded on 48-well plates. Next day, after cells were between 70-90% confluent, 250 ng of each construct was transfected in each well using (Thermo Fisher Scientific, 11668019) reagent. Each construct was either directly fused TagRFP either directly fused to each component or being co-expressed from the same plasmid was used as a measure of transfection. In each experiment, the same gate for RFP+ cells were used to control for the effect of each construct's expression levels on activity. EGFP reporter cells were expanded from a clonal line to control for level of ABI-dCas9 and gRNA targeting the TetO7 sites upstream of the promoter. For the CD133 induction experiment, a 293T cell line stably expressing ABI-dCas9 and a pool of 5 gRNAs targeting the promoter were used for all activators. CD133 antibody conjugated to APC (Miltenyi Biotec, 130-113-668) was used. All activator constructs were fused to PYL1 at their C-terminus and were recruited to their targets by treating the cells with 1 μM abscisic acid for either 24 or 48 hours.

B1: SPDYE4-CITED1-P65-HSF1: multi-component effector of SPDYE4, CITED1, p65 and HSF1 activation domains (protein)
chain: MDPSPQPQSLGLKRKSEWSDESEEELEEELELERAPEPEDTWVVETLCGLKMKLKRKRASSGGSGGSESLSPSAGAQSPAIIDSDPVDEEVLMSLVVELGLDRANELPELWLGQNEFDFTADFPSSCGGSINSRSSGSPKKKRKVGSQYLPDTDDRHRIEEKRKRTYETFKSIMKKSPFSGPTDPRPPPRRIAVPSRSSASVPKPAPQPYPFTSSLSTINYDEFPTMVFPSGQISQASALAPAPPQVLPQAPAPAPAPAMVSALAQAPAPVPVLAPGPPQAVAPPAPKPTQAGEGTLSEALLQLQFDDEDLGALLGNSTDPAVFTDLASVDNSEFQQLLNQGIPVAPHTTEPMLMEYPEAITRLVTGAQRPPDPAPAPLGAPGLPNGLLSGDEDFSSIADMDFSALLGSGSGSGFSVDTSALLDLFSPSVTVPDMSLPDLDSSLASIQELLSPQEPPRPPEAENSSPDSGKQLVHYTAQPLFLLDPGSVDTGSNDLPVLFELGEGSYFSEGDGFAEDPTISLLTGSEPPKAKDPTVS
For B1, the “activity of effector constructs on TetO reporter” value in test [1] is recorded as “the most active constructs in the system”. The “transcriptional activation of EGFP reporter by TAD fusions” value in test [2] is given as “most robust activation”. Moreover, in test [3], the “activation of endogenous CD133 gene” value was “most robust activation”.
